Entries after “also recorded” stand apart in the source; their conditions may differ.
Columns and labels:
human plasmin = biological target: T1, human plasmin (Homo sapiens, UniProt P00747); experiment: Plasmin digestion of SHEL, SDS-PAGE; type: biochemical; details: molar excess of peptide to SHEL (100:1); SHEL and SHELδ26A
T1 construct: purchased Sigma
Experimental: (§1) A range of enzyme concentrations was originally used to determine the optimal amount for subsequent experiments. Thrombin (0.01–1U), human plasma kallikrein (3×10^−4 to 3×10^−3U), human plasmin (7×10^−5 to 4×10^−7U), bovine trypsin (5×10^−4 to 4×10^−3U), and human leukocyte elastase (1.6×10^−4 to 3.2×10^−3U) were added to 10 μg SHEL or SHELδ26A in 50 mM sodium phosphate buffer pH 7.8 in a total volume of 20 μl. All reactions were performed at 37° C. for one hour. Gelatinase A and B were activated using 0.8 mM APMA at 37° C. for 30 minutes (gelatinase A) or 37° C. for 45 minutes (gelatinase B). Gelatinase A (4×10^−3−4×10^−2) and gelatinase B (2×10^−5−1×10^−4) was added to […] SHEL or SHELd26A in a total volume of […]. Gelatinase B reactions were performed in the presence of 0.75 mM APMA. The degradation profile was analysed by 8, 10 or 12% SDS-PAGE.
(§2) Both SHEL and SHELδ26A were used. Each reaction was analysed by 10% SDS-PAGE.
(§3) Extent of proteolysis was monitored by SDS-PAGE.

[1] = biological target: T2, human leukocyte elastase (HLE) (Homo sapiens, UniProt P08246); experiment: HLE digestion of SHEL, SDS-PAGE; type: biochemical; details: molar excess of peptide to SHEL (100:1); SHEL and SHELδ26A
T2 construct: purchased Sigma
T2 sequence (P08246 30-267): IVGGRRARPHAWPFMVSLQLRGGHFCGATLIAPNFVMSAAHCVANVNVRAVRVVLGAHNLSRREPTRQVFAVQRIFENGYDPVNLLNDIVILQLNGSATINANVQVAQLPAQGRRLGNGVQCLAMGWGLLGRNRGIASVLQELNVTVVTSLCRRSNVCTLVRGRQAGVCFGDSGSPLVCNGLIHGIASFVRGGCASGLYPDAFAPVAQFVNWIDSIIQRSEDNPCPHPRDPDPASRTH
Experimental: as §1, §2, §3

human plasma kallikrein = biological target: T3, human plasma kallikrein (Homo sapiens, UniProt P03952); experiment: Kallikrein digestion of SHEL, SDS-PAGE; type: biochemical; details: molar excess of peptide to SHEL (100:1); SHEL and SHELδ26A
T3 construct: purchased Sigma
Experimental: as §1, §2, §3

human serum = details: for effect of peptide on degradation of SHEL by serum (full-length SHEL, SDS-PAGE, densitometry): molar excess of peptide to SHEL (100:1), preincubated 37° C., SHEL and SHELδ26A; for effect of protease inhibitor on serum degradation of SHEL (amount of full-length SHEL): SHEL incubated with serum at 37° C., SDS-PAGE, 0.5 mM Pefabloc SC, 5 mM PMSF, 25 mM EDTA, Pefabloc PK, 1 unit Hirudin
Experimental: Human serum was obtained from fresh intravenous blood, centrifuged at 2000 g to remove red blood cells and then allowed to clot before serum was removed. Aliquots (20 μl) were stored at −20° C. and thawed when needed. 15 μg tropoelastin in 50 mM sodium phosphate buffer, pH 7.8 was incubated with 0.5 μl serum in a 20 μl reaction for between 1 and 18 hr at 37° C. […] All inhibitors were dissolved in water except PMSF which was dissolved in isopropanol. Reactions were analysed by 8% SDS-PAGE. Serum-digested peptides to be used for sequencing were purified by the addition of 1.5 volumes n-propanol, followed by 2.5 volumes n-butanol and stirred overnight. The organic solvents were removed by rotary evaporation and peptides resuspended in 50 mM sodium phosphate buffer, pH 7.8.
Various dilutions of serum from ½– 1/50 in 50 mM sodium phosphate pH7.8 were used and both SHEL and SHELδ26A were used for each experiment.
Experiments were conducted in parallel with S-GAL using identical procedures (see above). Both SHEL and SHELδ26A were used. Each reaction was analysed by 10% SDS-PAGE. Gels were scanned by densitometry and the volume of full-length SHEL calculated as follows. Scanning densitometry of stained gels was performed using the Molecular Dynamics Personal Densitometer. Images were analysed and quantitated using ImageQuant software (Version 3.2, Molecular Dynamics USA).
10 mg/ml SHEL in 50 mM sodium phosphate pH7.8 and 150 mM NaCl was allowed to coacervate at 37° C. until cloudy before adding human plasma kallikrein (6×10^−4U), thrombin (1U), plasmin (1.5×10^−5U), trypsin (2×10^−3U), HLE (1.6×10^−3U) and serum (0.75 μl) for one hour. Control reactions were performed at 16° C. for three hours. Extent of proteolysis was monitored by SDS-PAGE.

bovine trypsin = biological target: T4, bovine trypsin (Bos taurus, UniProt P00760); experiment: Trypsin digestion of SHEL, SDS-PAGE; type: biochemical; details: molar excess of peptide to SHEL (100:1); SHEL and SHELδ26A
T4 construct: purchased Boehringer-Mannheim
T4 sequence (P00760 24-246): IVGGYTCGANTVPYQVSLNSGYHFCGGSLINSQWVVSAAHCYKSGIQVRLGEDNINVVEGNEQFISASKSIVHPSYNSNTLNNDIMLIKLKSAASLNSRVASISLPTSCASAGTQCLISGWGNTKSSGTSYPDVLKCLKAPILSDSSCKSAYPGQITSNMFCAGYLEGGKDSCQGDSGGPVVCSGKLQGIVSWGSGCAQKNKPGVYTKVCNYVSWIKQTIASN
Experimental: as §1, §2, §3

human thrombin = biological target: T5, human thrombin (Homo sapiens, UniProt P00734); experiment: Thrombin digestion of SHEL, SDS-PAGE; type: biochemical; details: for effect of peptide on degradation of SHEL by thrombin (full-length SHEL, SDS-PAGE, densitometry): molar excess of peptide to SHEL (100:1), SHEL and SHELδ26A
T5 construct: purchased Sigma
Experimental: as §1, §2, §3
Cleavage of GST-SHEL bound to glutathione agarose was performed by washing and resuspending beads in 1× thrombin cleavage buffer (50 mM Tris-HCl pH8.0, 150 mM NaCl, 2.5 mM CaCl2) and adding human thrombin (Sigma) from 0.1 to 1% (w/v) thrombin:fusion protein at 25° C. for one hour (Smith and Johnston 1988). Soluble bacterial lysates used as substrate were incubated similarly with 1× thrombin cleavage buffer, added from a 10× stock. GST (26 kDa) was evident on beads by SDS-PAGE but SHEL could not be identified in the supernatant in numerous experiments. To determine whether thrombin was degrading SHEL, the entire cell lysate was subject to cleavage with increasing concentrations of thrombin. […] GST was clearly present. However, with 0.01U thrombin a band at approximately 64 kDa could be discerned which may represent SHEL although this was not nearly as intense as the GST band.

gelatinase A = gelatinase A (Homo sapiens, UniProt P08253)
kallikrein = biological target: T6, kallikrein (Homo sapiens, UniProt P03952); type: biochemical
T6 construct: from tissue; host or cells: human serum
T6 sequence (P03952 20-638): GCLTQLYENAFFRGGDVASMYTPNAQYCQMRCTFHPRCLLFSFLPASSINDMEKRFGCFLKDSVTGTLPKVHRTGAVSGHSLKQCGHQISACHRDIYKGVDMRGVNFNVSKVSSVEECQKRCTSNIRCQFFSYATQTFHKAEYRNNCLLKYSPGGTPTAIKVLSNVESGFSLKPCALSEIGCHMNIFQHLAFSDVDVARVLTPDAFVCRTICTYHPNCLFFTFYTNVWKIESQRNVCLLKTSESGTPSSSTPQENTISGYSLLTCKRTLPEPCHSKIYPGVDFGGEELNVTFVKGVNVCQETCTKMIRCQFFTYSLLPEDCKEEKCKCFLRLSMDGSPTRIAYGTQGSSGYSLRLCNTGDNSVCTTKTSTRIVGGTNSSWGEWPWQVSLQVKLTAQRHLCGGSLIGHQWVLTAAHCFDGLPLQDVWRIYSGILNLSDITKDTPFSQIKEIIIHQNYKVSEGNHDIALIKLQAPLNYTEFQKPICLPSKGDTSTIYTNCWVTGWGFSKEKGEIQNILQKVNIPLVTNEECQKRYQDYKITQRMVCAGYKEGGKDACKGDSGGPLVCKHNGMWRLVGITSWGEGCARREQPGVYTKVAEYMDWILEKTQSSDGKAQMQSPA

T3 sequence (P03952 20-638): as above
T1 sequence (P00747 97-810): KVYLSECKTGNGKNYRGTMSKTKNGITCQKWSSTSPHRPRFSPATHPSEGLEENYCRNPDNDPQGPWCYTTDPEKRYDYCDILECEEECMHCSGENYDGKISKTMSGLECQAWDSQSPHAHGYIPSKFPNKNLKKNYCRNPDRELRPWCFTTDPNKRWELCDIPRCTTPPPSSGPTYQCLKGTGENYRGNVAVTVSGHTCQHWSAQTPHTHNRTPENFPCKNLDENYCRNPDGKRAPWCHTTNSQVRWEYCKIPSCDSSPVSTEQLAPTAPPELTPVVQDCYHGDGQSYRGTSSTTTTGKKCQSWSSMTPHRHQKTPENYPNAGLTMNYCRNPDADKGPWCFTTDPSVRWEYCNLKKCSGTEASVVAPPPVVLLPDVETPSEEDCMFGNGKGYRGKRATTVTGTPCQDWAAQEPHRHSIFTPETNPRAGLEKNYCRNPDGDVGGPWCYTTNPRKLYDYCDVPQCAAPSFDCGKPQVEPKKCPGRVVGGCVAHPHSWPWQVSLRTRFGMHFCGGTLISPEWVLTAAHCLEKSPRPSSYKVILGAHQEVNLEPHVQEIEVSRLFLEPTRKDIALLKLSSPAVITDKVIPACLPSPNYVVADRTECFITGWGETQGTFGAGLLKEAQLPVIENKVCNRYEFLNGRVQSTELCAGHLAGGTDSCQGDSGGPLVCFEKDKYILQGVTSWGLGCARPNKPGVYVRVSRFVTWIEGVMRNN
Chain of gelatinase A (P08253 110-660): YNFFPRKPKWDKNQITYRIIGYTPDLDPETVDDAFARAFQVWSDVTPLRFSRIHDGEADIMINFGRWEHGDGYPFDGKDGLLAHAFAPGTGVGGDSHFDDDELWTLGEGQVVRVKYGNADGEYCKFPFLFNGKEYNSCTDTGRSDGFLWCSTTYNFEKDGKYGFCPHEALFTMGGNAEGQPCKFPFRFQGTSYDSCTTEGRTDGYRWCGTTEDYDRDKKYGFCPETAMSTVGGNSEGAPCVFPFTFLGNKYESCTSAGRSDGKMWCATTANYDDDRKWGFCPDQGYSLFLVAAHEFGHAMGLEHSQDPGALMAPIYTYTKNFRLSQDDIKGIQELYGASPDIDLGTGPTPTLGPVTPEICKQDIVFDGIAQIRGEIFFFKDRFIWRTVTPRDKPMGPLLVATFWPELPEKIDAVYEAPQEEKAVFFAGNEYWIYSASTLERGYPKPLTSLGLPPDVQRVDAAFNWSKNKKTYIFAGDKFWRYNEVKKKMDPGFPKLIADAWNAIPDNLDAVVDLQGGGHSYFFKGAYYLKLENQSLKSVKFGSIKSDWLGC

Compound	effect of peptide on degradation of SHEL by plasmin (full-length SHEL, SDS-PAGE, densitometry) (human plasmin)	effect of peptide on degradation of SHEL by HLE (full-length SHEL, SDS-PAGE, densitometry) [1]	effect of peptide on degradation of SHEL by kallikrein (full-length SHEL, SDS-PAGE, densitometry) (human plasma kallikrein)	effect of peptide on degradation of SHEL by serum (full-length SHEL, SDS-PAGE, densitometry) (human serum)	effect of peptide on degradation of SHEL by trypsin (full-length SHEL, SDS-PAGE, densitometry) (bovine trypsin)	effect of peptide on degradation of SHEL by thrombin (full-length SHEL, SDS-PAGE, densitometry) (human thrombin)	effect of protease inhibitor on serum degradation of SHEL (amount of full-length SHEL) (human serum)	also measured
N-AAKAQLRAAAGLGA-C (KAQLRAAAGLGAGI; listed as Homo sapiens) [SPS-peptide]	more full-length SHEL was evident compared with controls	more full-length SHEL using thrombin and HLE but to a lesser extent	more full-length SHEL was evident compared with controls	more full-length SHEL was evident compared with controls	more full-length SHEL was evident compared with controls	more full-length SHEL using thrombin and HLE but to a lesser extent		
N-VVGSPSAQDEASPLS-C (listed as Homo sapiens) [S-GAL, reference compound]	did not show any significant or consistent inhibition	consistently inhibited; also recorded: significant and reproducible inhibition was seen	did not show any significant or consistent inhibition	did not show any significant or consistent inhibition	did not show any significant or consistent inhibition	some inhibition could be seen		
O=C(O)CN(CCN(CC(=O)O)CC(=O)O)CC(=O)O [EDTA]							appeared to promote digestion	effect on 64 kDa zone in gelatin zymogram digested with serum (gelatinase A): 64 kDa zone was not observed
O=S(=O)(F)Cc1ccccc1 [PMSF]							protected tropoelastin from cleavage	effect of inhibitor on second cleared zone in SHEL zymogram digested with serum (kallikrein): second cleared zone was not seen
Hirudin [reference compound]							did not appear to significantly inhibit degradation	inhibition of thrombin degradation of SHEL by inhibitor (human thrombin; not shown): degradation was inhibited
Cl.NCCc1ccc(S(=O)(=O)F)cc1 [Pefabloc SC]							protected tropoelastin from cleavage	

Reference: patent US7229788B1, “Protease susceptibility II” (The University of Sydney, priority 1998, dated 2007)
